These results are taken from patent US7893197B2, “Relaxin-3 chimeric polypeptides and their preparation and use” (Janssen Pharmaceutica N.V., priority 2005, dated 2011).

The target in one test is T1, GPCR142 (Homo sapiens, UniProt Q8TDU9, L329S).
T1 construct: expressed in transfected cells
Put plainly: Inhibition of forskolin stimulated β-galactosidase expression in SK-N-MC/β-gal cells. The test is classed as cell-based. Conditions: for EC50 to activate GPCR142: inhibition of 5 μM forskolin stimulated β-galactosidase expression, mean ± SEM, n = 3.

For test [1], the target named is T2, GPCR135 (Homo sapiens, UniProt Q9NSD7).
T2 construct: expressed in transfected cells
T2 sequence (Q9NSD7 1-469): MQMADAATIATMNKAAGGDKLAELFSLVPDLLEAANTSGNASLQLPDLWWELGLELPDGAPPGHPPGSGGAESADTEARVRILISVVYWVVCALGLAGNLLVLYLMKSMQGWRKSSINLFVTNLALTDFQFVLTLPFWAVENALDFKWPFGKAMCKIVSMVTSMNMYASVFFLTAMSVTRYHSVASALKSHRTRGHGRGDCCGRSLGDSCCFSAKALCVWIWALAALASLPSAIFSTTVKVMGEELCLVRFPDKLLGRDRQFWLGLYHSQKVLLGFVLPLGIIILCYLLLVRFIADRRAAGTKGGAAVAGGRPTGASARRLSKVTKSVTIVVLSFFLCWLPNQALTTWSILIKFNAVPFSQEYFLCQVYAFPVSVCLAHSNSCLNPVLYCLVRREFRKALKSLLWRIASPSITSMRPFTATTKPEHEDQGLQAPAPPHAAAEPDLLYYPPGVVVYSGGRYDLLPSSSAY
Described as above. The test is classed as cell-based. As to conditions: for EC50 to activate GPCR135: inhibition of 5 μM forskolin stimulated β-galactosidase expression, mean ± SEM, n = 3.
Description: (§8) Different chimeric polypeptides at various concentrations were added to SK-N-MC/β-gal cells expressing human GPCR135 (FIG. 4A) or GPCR142 (FIG. 4B) to inhibit forskolin stimulated β-galactosidase expression. […] In parallel, chimeric polypeptides at various concentrations were added to SK-N-MC/β-gal cells expressing human LGR7 (FIG. 4C) and LGR8 (FIG. 4D) to stimulate β-galactosidase expression. Relaxin-3 and INSL3 were used as positive controls for LGR7 and LGR8, respectively. Intracellular β-galactosidase activity was measured by a colorimetric assay using CRGP as the substrate and reading the absorbance at wavelength of 570 nm. Data represent mean±SEM (n=3).

The target in test [2] is T3, LGR7 (Homo sapiens, UniProt Q9HBX9).
T3 construct: Human LGR7 cDNA containing the complete coding region was PCR amplified; expressed in transfected cells
T3 sequence (Q9HBX9 1-757): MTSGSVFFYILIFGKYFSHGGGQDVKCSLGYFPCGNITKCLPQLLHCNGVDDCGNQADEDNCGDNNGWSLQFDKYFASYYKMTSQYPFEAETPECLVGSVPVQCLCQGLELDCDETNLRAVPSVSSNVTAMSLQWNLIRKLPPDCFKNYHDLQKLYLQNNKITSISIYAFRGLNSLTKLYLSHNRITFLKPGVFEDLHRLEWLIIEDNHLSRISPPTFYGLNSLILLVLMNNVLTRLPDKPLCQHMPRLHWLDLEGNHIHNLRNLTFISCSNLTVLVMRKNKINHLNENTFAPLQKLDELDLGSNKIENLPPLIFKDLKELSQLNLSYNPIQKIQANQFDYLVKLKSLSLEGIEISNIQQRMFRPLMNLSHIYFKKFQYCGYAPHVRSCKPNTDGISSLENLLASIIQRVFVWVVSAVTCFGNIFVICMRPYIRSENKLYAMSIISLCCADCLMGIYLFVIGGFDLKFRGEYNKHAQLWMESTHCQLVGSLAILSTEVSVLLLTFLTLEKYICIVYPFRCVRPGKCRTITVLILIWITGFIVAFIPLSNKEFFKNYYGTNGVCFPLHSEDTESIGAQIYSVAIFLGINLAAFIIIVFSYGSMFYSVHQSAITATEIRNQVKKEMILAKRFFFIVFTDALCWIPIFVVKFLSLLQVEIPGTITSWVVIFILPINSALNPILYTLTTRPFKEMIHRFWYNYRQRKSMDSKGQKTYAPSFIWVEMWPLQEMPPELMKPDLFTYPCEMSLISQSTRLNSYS
The test can be described thus: Radioligand competition binding, [125I]-relaxin-3, live transfected COS-7 cells. Conditions: [125I]-relaxin-3 100 pM; mean ± SEM, n = 3. (Displacement assays read how much labelled ligand stays bound in the presence of the test substance.)
Description: For GPCR135, GPCR142, and LGR7, [^125I]-relaxin-3 was used as the radioligand at a final concentration of 100 pM. Different unlabeled peptides were used in the binding assay as the competitors. […] Different unlabeled peptides including relaxin-3 chimeras at various concentrations were added to the binding assay as the competitors. Data represent mean±SEM (n=3).
Radioligand binding assays for LGR7 and LGR8 were performed using live COS-7 cells transiently transfected with LGR7 or LGR8 expression plasmids in 15-cm culture dishes using LipofectAmine (Invitrogen). Two days after transfection, the transfected cells were detached from the 15-cm culture dished using phosphate buffered saline (PBS) plus 10 mM EDTA, seeded into 96-well opaque poly-D-lysine coated culture plates and used for radioligand binding assays. For LGR7, [^125I]-relaxin-3 was used as the tracer. […] [^125I]-labeled tracer was added in binding reactions at a final concentration of 100 pM in binding buffer containing DMEM plus 50 mM HEPES and 1% bovine serum albumin. Unlabeled relaxin-3 and relaxin-3 chimeric polypeptides were added at various concentrations to the binding assays as the competitors, as indicated (FIG. 3). The binding mixtures were incubated at room temperature for 1 hour. The unbound radioligand was removed by aspiration of the binding buffer. The cells were washed with PBS. The bound radioligand was counted in a scintillation counter (TopCount/NTX). The results were analyzed using Prism 3.0 program (Graphpad, San Diego, Calif.). The IC50 values represent the ligand concentrations that inhibit 50% of the maximum specific binding.

The target in another test is T4, LGR8 (Homo sapiens, UniProt Q8WXD0).
T4 construct: Human LGR8 cDNA containing the complete coding region was PCR amplified; expressed in transfected cells
Put plainly: Stimulation of β-galactosidase expression in SK-N-MC/β-gal cells. The test is classed as cell-based. The procedure:
(§1) FIGS. 1A-1D show the activation of GPCR135 and GPCR142 by relaxin-3 B-chain, but not of LGR7 or LGR8. In FIG. 1A, SK-N-MC/β-gal cells expressing human GPCR135 were stimulated with relaxin-3, relaxin-3 B-chain, porcine relaxin, or INSL3 at various concentrations to inhibit the forskolin stimulated β-galactosidase expression. Forskolin was added to cells at a final concentration of 5 μM to stimulate the β-galactosidase expression. FIG. 1B depicts results for SK-N-MC/β-gal cells expressing human GPCR142 stimulated as in FIG. 1A. In FIG. 1C, SK-N-MC/β-gal cells expressing human LGR7 were stimulated with relaxin-3, relaxin-3 B-chain, porcine relaxin, and INSL3 at various concentrations to induce the β-galactosidase expression. The intracellular β-galactosidase activities were measured by a colorimetric assay using CRGP as the substrate and reading the absorbance at a wavelength of 570 nm. For FIG. 1D, SK-N-MC/β-gal cells expressing human LGR8 were stimulated as in FIG. 1C.
(§2) FIGS. 4A-4D illustrate the evaluation of the agonist activity of relaxin-3 chimeric polypeptides in biofunctional assays. Different chimeric polypeptides at various concentrations were added to SK-N-MC/β-gal cells expressing human GPCR135 (FIG. 4A) or GPCR142 (FIG. 4B) to inhibit forskolin stimulated β-galactosidase expression. Human relaxin-3 was used as the positive control. In parallel, chimeric polypeptides at various concentrations were added to SK-N-MC/β-gal cells expressing human LGR7 (FIG. 4C) and LGR8 (FIG. 4D) to stimulate β-galactosidase expression. Relaxin-3 and INSL3 were used as positive controls for LGR7 and LGR8, respectively. Intracellular β-galactosidase activity was measured by a colorimetric assay using CRGP as the substrate and reading the absorbance at wavelength of 570 nm. Data represent mean±SEM (n=3).
(§3) It has been shown that synthetic human relaxin-3 B-chain alone, but not A-chain, is an agonist for both GPCR135 and GPCR142 (Liu et al., 2003, Journal of Biological Chemistry, 278:50754-50764 and Liu et al., 2003, Journal of Biological Chemistry, 278:50765-50770). Those studies were repeated herein in SK-N-MC/β-gal cells, which harbor a β-galactosidase gene under the control of a cAMP responsive element (CRE) (Liu et al., 2001, Molecular Pharmacology, 59:420-426). In such SK-N-MC/β-gal cells, an increase in intracellular cAMP concentration leads to increased β-galactosidase gene expression, the activity of which is measured using Chlorophenol Red-β-D-Galactopyranoside (CPRG) as the substrate.
(§4) The inventive chimeric polypeptides were each independently tested for their ability to activate either GPCR135, GPCR142, LGR7, or LGR8, respectively, in separate pools of SK-N-MC/β-gal cells (see supra), each pool stably expressing one of the respective receptors, as indicated (FIG. 4).
(§5) Cells were seeded in 96-well tissue culture plate at a density of 30,000 cells/well in MEM plus 10% fetal serum, sodium pyruvate, penicillin, streptomycin, and G418 (400 mg/L). For cells expressing GPCR135 or GPCR142, forskolin was added to cells at a final concentration of 5 μM to stimulate intracellular cAMP accumulation. Different concentrations of each of the inventive polypeptides were then added to the cells to inhibit the forskolin induced cAMP accumulation. For cells expressing LGR7 or LGR8, intracellular cAMP was stimulated with each of the inventive chimeric polypeptides at various concentrations.
(§6) For all cells, after adding the chimeric polypeptides, cells were incubated for 6 additional hours in 37° C. incubator. The media was then aspirated and the β-galactosidase activities measured as previously described (Liu et al., 2001, Molecular Pharmacology, 59:420-426). The results were analyzed by Prism 3.0 software. […]

Test [3] has as its target T3, LGR7. Put plainly: Binding of radioligands to COS-7 cells transfected with LGR7. As to conditions: radioligand 100 pM. The procedure: (§7) FIGS. 5A-5D illustrate a comparative analysis of the binding specificities of [^125I]-relaxin-3 and [^125I]-R3/I5 for GPCR135 and LGR7. COS-7 cells in 6-well culture dishes were transfected with human GPCR135 and LGR7, respectively. Mock transfected COS-7 cells were used as the negative controls. [^125I]-relaxin-3 (FIG. 5A) or [^125I]-R3/I5 (FIG. 5B) was added to cells at a final concentration of 100 pM either in the absence or presence of 1 uM of unlabeled relaxin-3 to determine total binding and non-specific binding, respectively. FIG. 5C depicts an autoradiogram of [^125]-relaxin-3 binding in rat brain sagittal section. FIG. 5D depicts an autoradiogram of non-specific binding of [^125]-relaxin-3 as determined in the presence of 100 nM of unlabeled relaxin-3. FIG. 5E depicts an autoradiogram of [^125]-R3/I5 binding in rat brain sagittal section. […] binding of [^125]-R3/I5 as determined in the presence of 100 nM of unlabeled relaxin-3.

Test [4] addresses T2, GPCR135. Put plainly: Binding of radioligands to COS-7 cells transfected with GPCR135. Conditions: radioligand 100 pM. The procedure: as §7
Test [5] addresses T3, LGR7. The test can be described thus: Stimulation of β-galactosidase expression in SK-N-MC/β-gal cells. The test is classed as cell-based. As to conditions: ligand stimulated β-galactosidase expression; mean ± SEM, n = 3; read-out: EC50 to activate LGR7. The procedure:
as §1, §2, §3, §4, §5, §6

Ends that are not written are not given here.

As usually defined, the EC50 is the concentration giving half of the maximal effect.

T1 sequence (Q8TDU9 whole entry L329S): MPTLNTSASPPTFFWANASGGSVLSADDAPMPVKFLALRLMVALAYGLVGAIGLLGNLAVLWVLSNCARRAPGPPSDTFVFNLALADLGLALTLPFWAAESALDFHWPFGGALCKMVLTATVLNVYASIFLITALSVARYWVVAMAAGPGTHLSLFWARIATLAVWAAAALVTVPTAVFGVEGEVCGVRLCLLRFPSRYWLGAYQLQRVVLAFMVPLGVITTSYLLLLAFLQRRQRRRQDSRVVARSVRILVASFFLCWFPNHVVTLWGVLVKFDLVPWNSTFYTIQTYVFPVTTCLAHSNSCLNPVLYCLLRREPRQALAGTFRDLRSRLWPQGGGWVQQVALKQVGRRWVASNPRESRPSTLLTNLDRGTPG
T4 sequence (Q8WXD0 whole entry): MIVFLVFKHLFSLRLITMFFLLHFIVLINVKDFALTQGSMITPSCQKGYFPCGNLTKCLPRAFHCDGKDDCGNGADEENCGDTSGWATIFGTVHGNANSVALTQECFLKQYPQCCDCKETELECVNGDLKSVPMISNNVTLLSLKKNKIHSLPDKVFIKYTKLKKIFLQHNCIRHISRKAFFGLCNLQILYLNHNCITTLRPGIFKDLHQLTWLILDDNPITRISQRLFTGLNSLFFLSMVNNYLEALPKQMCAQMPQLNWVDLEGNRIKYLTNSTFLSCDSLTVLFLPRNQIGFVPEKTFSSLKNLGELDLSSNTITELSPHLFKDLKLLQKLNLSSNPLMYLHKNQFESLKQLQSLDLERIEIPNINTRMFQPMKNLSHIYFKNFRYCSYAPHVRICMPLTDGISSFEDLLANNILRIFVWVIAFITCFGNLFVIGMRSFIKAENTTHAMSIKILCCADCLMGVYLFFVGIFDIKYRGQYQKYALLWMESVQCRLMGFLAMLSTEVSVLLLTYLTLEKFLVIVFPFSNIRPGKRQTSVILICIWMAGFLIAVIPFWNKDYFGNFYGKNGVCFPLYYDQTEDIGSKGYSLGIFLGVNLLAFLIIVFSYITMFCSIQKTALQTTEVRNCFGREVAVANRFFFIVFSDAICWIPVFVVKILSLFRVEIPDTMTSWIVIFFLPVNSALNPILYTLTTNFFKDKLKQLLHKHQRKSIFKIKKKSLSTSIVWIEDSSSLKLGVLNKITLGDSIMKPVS
Description for GPCR142: as §8

In the case of `CC[C@H](C)[C@H](NC(=O)[C@H](Cc1ccccc1)NC(=O)[C@H](CCC(=O)O)NC(=O)[C@H](CCCNC(=N)N)NC(=O)CNC(=O)[C@H](CS)NC(=O)[C@H](CC(C)C)NC(=O)[C@H](CCCNC(=N)N)NC(=O)[C@@H](NC(=O)CNC(=O)[C@H](Cc1ccc(O)cc1)NC(=O)[C@@H]1CCCN1C(=O)[C@H](C)NC(=O)[C@H](C)NC(=O)[C@@H](N)CCCNC(=N)N)C(C)C)C(=O)N[C@@H](CCCNC(=N)N)C(=O)N[C@@H](C)C(=O)N[C@H](C(=O)N[C@H](C(=O)N[C@@H](Cc1ccccc1)C(=O)N[C@H](C(=O)N[C@@H](CS)C(=O)NCC(=O)NCC(=O)N[C@@H](CO)C(=O)N[C@@H](CCCNC(=N)N)C(=O)N[C@@H](Cc1c[nH]c2ccccc12)C(=O)O)[C@@H](C)O)[C@@H](C)CC)C(C)C` [relaxin-3 B-chain, reference compound], the values for the EC50 at GPCR142 (read-out: EC50 to activate GPCR142) and on GPCR135 [1] (read-out: EC50 to activate GPCR135) were 125 nM and 88 nM, respectively.

As for “R3/R1: chimeric polypeptide: human relaxin-3 B-chain and relaxin-1 A-chain; mature polypeptide SEQ ID NO:19 (RAAPYGVRLCGREFIRAVIFTCGGSRWPYVALFEKCCLIGCTKRSLAKYC; Human Relaxin-3/Relaxin-1 chimeric mature polypeptide)”, the “EC50 to activate GPCR142” value in the test with GPCR142 is listed as “low nanomolar range”. The “IC50 for binding LGR7” value with LGR7 [2] is recorded as “low nanomolar range”. Also, the “activation of LGR8, in words” value with LGR8 (highest concentration tested 1 μM) is listed as “marginal activity at the highest concentration tested (1 μM)”. Besides, the “EC50 to activate GPCR135” value in the test with GPCR135 [1] was “low nanomolar range”.

With “R3/I3: chimeric polypeptide: human relaxin-3 B-chain and INSL3 A-chain; mature polypeptide SEQ ID NO:21 (RAAPYGVRLCGREFIRAVIFTCGGSRWNPARYCCLSGCTQQDLLTLC; Human Relaxin-3/Insulin-like 3 chimeric mature polypeptide)”, in the test with GPCR142, the “EC50 to activate GPCR142” value is listed as “low nanomolar range”. Besides, in the test with LGR7 [2], the “IC50 for binding LGR7” value was “low nanomolar range”. Also, in the test with GPCR135 [1], the “EC50 to activate GPCR135” value is listed as “low nanomolar range”.

“R3/R2: chimeric polypeptide: human relaxin-3 B-chain and relaxin-2 A-chain; mature polypeptide SEQ ID NO:20 (RAAPYGVRLCGREFIRAVIFTCGGSRWQLYSALANKCCHVGCTKRSLARFC; Human Relaxin-3/Relaixin-2 chimeric mature polypeptide)”: the “EC50 to activate GPCR142” value with GPCR142 is on record as “low nanomolar range”. For the same molecule, the “IC50 for binding LGR7” value with LGR7 [2] is “low nanomolar range”. The “EC50 to activate GPCR135” value in the test with GPCR135 [1] is recorded as “low nanomolar range”.

“[^125I]-relaxin-3: radioiodinated human relaxin-3 used as tracer (RAAPYGVRLCGREFIRAVIFTCGGSRWDVLAGLSSSCCKWGCSKSEISSLC; ends and bridges not checked; also: radioiodinated ([125I]), site not given here) [reference compound]”: the “binding to LGR7, in words” value with LGR7 [3] is reported as “did”. Besides, the “binding to GPCR135 expressing cells, in words” value in the test with GPCR135 [4] was “high affinity”.

B1: porcine relaxin: porcine relaxin, reference ligand for LGR7 and LGR8 (protein)
chain: QSTNDFIKACGRELVRLWVEICGSVSWGRTALSLEEPQLETGPPAETMPSSITKDAEILKMMLEFVPNLPQELKATLSERQPSLRELQQSASKDSNLNFEEFKKIILNRQNEAEDKSLLELKNLGLDKHSRKKRLFRMTLSEKCCQVGCIRKDIARLC
With B1, the 50% effective concentration (EC50) with LGR7 [5] worked out at 0.25 nM; with LGR8 (ligand stimulated β-galactosidase expression, mean ± SEM, n = 3, read-out: EC50 to activate LGR8) it was 1.5 nM.
